{"source": "paper PMC2700083", "about": "“A covalent peptide inhibitor of RGS4 identified in a focused one-bead, one compound library screen” (BMC Pharmacology, 2009)", "binders": {"B1": {"name": "Peptide 5nd (Tyr-Trp-c[Cys-Lys-Gly-Leu-Cys]-Lys-NH2, S-S) (peptide)", "peptide": "H-YWCKGLCK-NH2", "modifications": "disulfide 3-7", "SMILES": "CC(C)C[C@@H]1NC(=O)CNC(=O)[C@H](CCCCN)NC(=O)[C@@H](NC(=O)[C@H](Cc2c[nH]c3ccccc23)NC(=O)[C@@H](N)Cc2ccc(O)cc2)CSSC[C@@H](C(=O)N[C@@H](CCCCN)C(N)=O)NC1=O"}}, "test_in_all_cases": "FCPIA (flow cytometry protein interaction assay, Luminex beads); dose curves of 5nd on RGS4 cysteine mutants (5 nM, or 20 nM for the mutants with no Cys in the domain or the C-terminus) and labeled Gαo; curves constrained to 100% and 0%", "key": {"[1]": {"target": "MBP-RGS4Δ51N with no Cys in the RGS domain (UniProt P49799)"}, "[2]": {"target": "MBP-RGS4Δ51N A148C in the -7C (UniProt P49799)"}, "[3]": {"target": "MBP-RGS4Δ51N A132C in the -7C (UniProt P49799)"}, "[4]": {"target": "MBP-RGS4Δ51N -7C mutant (all 7 cysteines removed) (UniProt P49799)"}, "[5]": {"target": "MBP-RGS4Δ51N A71C in the -7C (UniProt P49799)"}, "[6]": {"target": "MBP-RGS4Δ51N A95C in the -7C (UniProt P49799)"}, "[7]": {"target": "MBP-RGS4Δ51N with no Cys in the C-terminus (UniProt P49799)"}, "[8]": {"target": "MBP-RGS4Δ51N with no Cys in the C-terminus (UniProt P49799)", "remark": "listed apart in the source"}}, "note": "Where two headings read alike, the source gives them in different places. Bridges are numbered along the chain shown (N, C = ends)."}
{"binder": "B1", "values": [{"measurement": "logIC50", "setting": "[1]", "result": -3.8, "unit": "log M"}, {"measurement": "logIC50", "setting": "[2]", "result": -3.51, "unit": "log M"}, {"measurement": "logIC50", "setting": "[3]", "result": -3.41, "unit": "log M"}, {"measurement": "logIC50", "setting": "[4]", "result": -3.24, "unit": "log M"}, {"measurement": "logIC50", "setting": "[5]", "result": -3.2, "unit": "log M"}, {"measurement": "logIC50", "setting": "[6]", "result": -3.58, "unit": "log M"}, {"measurement": "logIC50", "setting": "[7]", "result": -4.39, "unit": "log M"}, {"measurement": "logIC50", "setting": "[8]", "result": -4.5, "unit": "log M"}]}
